Results as given in PMC10636607 (Cell Reports, 2023).

Key:
[1] = target: biotinylated influenza hemagglutinin (HA) from H1N1 A/California/07/2009 (Influenza A virus A/California/07/2009 …, UniProt C3W5X2, strain, biotinylated); assay: BLI; conditions: both partners purified
[2] = target: T1, biotinylated C-terminal αTSR domain of P. falciparum circumsporozoite protein (P. falciparum, UniProt Q7K740); assay: BLI; conditions: both partners purified
T1 construct: also called P. falciparum CSP
T1 sequence (Q7K740 310-375): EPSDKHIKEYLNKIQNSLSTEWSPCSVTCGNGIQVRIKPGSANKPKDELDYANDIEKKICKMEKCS

Row | Binder | binding result [1] | binding result [2]
1 | 5J8 Fab (WT) (Fab, V domains shown, source: ExpiCHO cells, transiently co-transfected, purified (CaptureSelect CH1-XL)) VH: EVQLVESGPGLVKPSDILSLTCAVSGYSISSNYYWGWIRQPPGKGLEWIGSIYHSGSTYYKPSLESRLGISVDTSKNQFSLKLSFVSAADTAVYYCARHVRSGYPDTAYYFDKWGQGTLVTVSS VL: SYVLTQPPSVSVAPGETARISCGGNNIGTKVLHWYQQTPGQAPVLVVYDDSDRPSGIPERFSGSNSGNTATLTISRVEVGDEADYYCQVWDISTDQAVFGGGTKLTVL | binds | 
2 | Fab234 (WT) (Fab, V domains shown) VH: EVQLVESGGGLVKPGGSLRLSCAASGFNFSTHIMNWVRQAPGKGLEWVSSISSSGTYIYYADSMKGRFTISRDNPKNSLYLQMNSLRAEDTAVYYCARARGFIQFHYYMDVWGKGTTVAVSS VL: SYVLTQPPSVSVAPGKTARITCGGNNIGSKSVHWHQQRPGQAPVLVVYDDKIRPSGIPERFSGSNSGNTATLIISRVEAGDEADYYCQVWHSSSDPVVFGGGTKLTVL |  | binds
